Patent publication US20030091568A1, “Inhibitors for the formation of soluble human CD23” (priority 2000, published 2003)

T1: ADAM9 (Homo sapiens, UniProt Q13443)
T1 construct: endogenous in cells
T1 sequence (Q13443 29-819): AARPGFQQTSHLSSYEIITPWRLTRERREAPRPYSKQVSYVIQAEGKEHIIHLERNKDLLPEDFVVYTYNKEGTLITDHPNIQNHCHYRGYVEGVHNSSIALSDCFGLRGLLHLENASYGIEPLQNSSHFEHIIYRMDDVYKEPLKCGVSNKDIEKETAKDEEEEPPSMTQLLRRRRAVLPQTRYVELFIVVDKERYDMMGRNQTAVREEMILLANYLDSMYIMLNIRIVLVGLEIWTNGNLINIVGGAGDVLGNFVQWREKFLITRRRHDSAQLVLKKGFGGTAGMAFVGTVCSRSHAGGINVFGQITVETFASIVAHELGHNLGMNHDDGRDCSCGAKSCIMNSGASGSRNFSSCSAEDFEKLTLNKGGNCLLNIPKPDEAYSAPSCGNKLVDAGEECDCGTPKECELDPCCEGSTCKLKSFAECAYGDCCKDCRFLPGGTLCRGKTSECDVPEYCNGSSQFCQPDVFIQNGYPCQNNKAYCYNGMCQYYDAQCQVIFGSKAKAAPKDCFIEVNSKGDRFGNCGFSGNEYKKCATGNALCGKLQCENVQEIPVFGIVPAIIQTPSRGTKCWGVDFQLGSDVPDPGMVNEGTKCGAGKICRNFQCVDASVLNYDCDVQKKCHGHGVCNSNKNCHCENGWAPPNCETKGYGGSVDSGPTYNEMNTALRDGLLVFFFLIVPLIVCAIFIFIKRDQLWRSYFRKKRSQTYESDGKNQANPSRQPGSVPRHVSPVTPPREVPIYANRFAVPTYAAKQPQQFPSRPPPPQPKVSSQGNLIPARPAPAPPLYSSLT

T2: ADAM10 (Homo sapiens, UniProt O14672)
T2 sequence (O14672 214-748): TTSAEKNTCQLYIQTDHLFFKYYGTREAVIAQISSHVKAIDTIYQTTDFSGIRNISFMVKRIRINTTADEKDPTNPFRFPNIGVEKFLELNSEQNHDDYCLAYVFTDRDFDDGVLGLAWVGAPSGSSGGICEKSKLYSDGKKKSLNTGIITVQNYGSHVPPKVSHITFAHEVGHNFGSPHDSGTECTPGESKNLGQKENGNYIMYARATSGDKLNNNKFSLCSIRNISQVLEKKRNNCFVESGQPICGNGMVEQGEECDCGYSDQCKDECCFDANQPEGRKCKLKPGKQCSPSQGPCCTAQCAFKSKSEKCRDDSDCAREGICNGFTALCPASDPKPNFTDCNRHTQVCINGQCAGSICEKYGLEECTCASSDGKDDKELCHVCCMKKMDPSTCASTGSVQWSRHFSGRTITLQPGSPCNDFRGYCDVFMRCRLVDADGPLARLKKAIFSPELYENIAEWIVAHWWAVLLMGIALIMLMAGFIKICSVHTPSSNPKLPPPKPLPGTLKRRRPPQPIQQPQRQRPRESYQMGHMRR


How the values were obtained:
ADAM9 = biological target: T1, ADAM9; assay: Shedding of CD23 from human B cell line P493-6 (c-myc "On", endogenous ADAM9); assay type: cell-based; conditions: TIMP concentrations known to inhibit MMPs, MT-MMPs, ADAM10 and ADAM17, FIG. 6a
Text: TIMP-1, -2 and -3 are known to inhibit all known secreted matrix metalloproteinases (MMPs), membrane-type matrix metalloproteinases (MT-MMPs), as well as ADAM10 (inhibited by TIMP-1 and TIMP-3) and ADAM17 (TACE, inhibited by TIMP-3 only). In contrast, it has been shown that membrane bound ADAM9 is not inhibited by either TIMP-1, -2 or -3 (see Example 3, FIG. 3). Using the human B cell line P493-6 with a tetracycline regulatable c-myc gene allowed the upregulation of endogeneous ADAM9 via upregulation of c-myc. […] The decrease in cell surface bound CD23 correlated with the increase in the s-CD23 concentration in the culture medium assayed by ELISA (CD23 ELISA kit, Becton Dickinson, and CD23 ELISA kit, the Binding Site). […]
To inhibit matrix metalloproteinase activity, aliquots of the cells studied (transfected CHO AA8, […]) were washed three-times in serum free medium and further cultured either in the presence (1 μM TC) or absence of TC for 24-48 h, either in the presence of 2 μM batimastat (BB-94, British Biotechnology) or 20 nM-1 μM of either TIMP-1, -2, or TIMP-3. […] Surface CD23 in the presence of either of the inhibitors was quantitated by FACS analyses using a FITC-labelled monoclonal antibody against human CD23 and compared to cells cultured in the absence of the respective inhibitor. […]

ADAM10 = biological target: T2, ADAM10; conditions: stated as known; cited from earlier work

Row | inhibition of CD23 shedding (s-CD23 in culture medium, ELISA) (ADAM9) | Molecule | inhibition of ADAM10 (ADAM10)
1 | could not be inhibited | TIMP-1: tissue inhibitor of metalloproteinases 1 | inhibited
2 | could not be inhibited | TIMP-3: tissue inhibitor of metalloproteinases 3 (protein, UniProt P35625 24-211, looked up) Metalloproteinase inhibitor 3: CTCSPSHPQDAFCNSDIVIRAKVVGKKLVKEGPFGTLVYTIKQMKMYRGFTKMPHVQYIHTEASESLCGLKLEVNKYQYLLTGRVYDGKMYTGLCNFVERWDQLTLSQRKGLNYRYHLGCNCKIKSCYYLPCFVTSKNECLWTDMLSNFGYPGYQSKHYACIRQKGGYCSWYRGWAPPDKSIINATDP | inhibited
